Experimental data taken from a protein production outcome set (Wang et al. 2014).

Assay: label from the status in PepcDB records
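Further: failed if final PepcDB status was selected cloned or expressed and not failed if soluble or beyond.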

| Sequence | protein production |
| --- | --- |
| MTYEAFVELVERLWEEVPEDFKRGLQGVHVFPEAKPEPGLEGVWRLGEYLDPGPPSAFGGFEDLGRHIALYYGSFLEVAGEGFDWEAEVWETLLHELRHHLESLAGRDDLVQEDLRRLDAFRRGGPSGEG | not failed |
| MNSEENTDSIPIDLILDILSRLPSKSIARCRCVSKLWESMIRQSYFTELFLTRSSSRPHLLIAVEQEGEWKFFSLPQPKNYLGKSSLVVAANLHLKFFEDKRPQHGCSYASSLIYFPNMTIRKKGDDHLGVICNPSTGQYGYVILPPLLDFKSVPYGKFLGFDPIDKQFKVLIPIFDFDKHQTDHHILTLGAETVGWRKIQSPLRYLPHSNGTICINGILYYLAKINYAMDKNVLVCFDVRSENFVFLRLNTYCSSTKLVNYKGKLGMINQEYVDDGGFPLKLSVWVLEDVGKEEWSTYVYTLRDDNKVDQVKYNLSVVGVTASGEIVLVKKTQTLKPFYVLYFNPDKNTLLTVEVKGLHRGLYAVHRIYAFVDHVEDLEFNIMKTTYAAKSKFSQEDRF | failed |
| MEKEMARLAAFDMDGTLLMPDHHLGEKTLSTLARLRERDITLTFATGRHALEMQHILGALSLDAYLITGNGTRVHSLEGELLHRDDLPADVAELVLYQQWDTRASMHIFNDDGWFTGKENPALLQAFVYSGFRYQIIDVKKMPLGSVTKICFCGDHDDLTRLQIQLYEALGERAHLCFSATDCLEVLPVGCNKGAALTVLTQHLGLSLRDCMAFGDAMNDREMLGSVGSGFIMGNAMPQLRAELPHLPVIGHCRNQAVSHYLTHWLDYPHLPYSPE | failed |
| MLRLSAPGQLDDDLCLLGDVQVPVFLLRLGEASWALVEGGISRDAELVWADLCRWVADPSQVHYWLITHKHYDHCGLLPYLCPRLPNVQVLASERTCQAWKSESAVRVVERLNRQLLRAEQRLPEACAWDALPVRAVADGEWLELGPRHRLQVIEAHGHSDDHVVFYDVRRRRLFCGDALGEFDEAEGVWRPLVFDDMEAYLESLERLQRLPTLLQLIPGHGGLLRGRLAADGAESAYTECLRLCRRLLWRQSMGESLDELSEELHRAWGGQSVDFLPGELHLGSMRRMLEILSRQALPLD | failed |
| MFTGFGAASFSAPAKAAAQTNTLSENTNQSAAELVKNLYNTAYKGEMPQQAQGLTINKSTKGDVHAAFGEPERPVGGDNRFDLYHWNMGQPGYGFSYHKDMTISEIRYFGTGVERQLNLGGVTPEVLQKQLGPVNRVLTVPFTDEIDYVYDTGRYELHFVIGTDQTADHVNLKAKLEHHHHHH | not failed |
| MASMDVEEFIGQNRQLADRVEAFRGFSESDKHWKGRREFIFRNMADFPEPQVDHLLALSMVWQNHVFMGCRYSSELLQRVMEMAEGIEVEDAPVFKTRDEIIRQQKQR | failed |
| MAPTFSPNPQNFTKKDKTKAERRKPEEGDDDHHHNASQLFLNPWQTRAARCRSLANGMLMTLHQLRGLLLSSTKLETRRKEVENLTHQGKMNLDIIKMGKFLRNPPKNGFAVYAQNKWRGVCLGRSFIYI | failed |
| YLSPMAHWLMPVAGGPNIEKMLNLLPALFSLYPEENNPQLLISKVYLPRQSQRYDPFYDLKNLAERWSEQLQRPIIPIPVCSTSIADALSDLAEMRECAAIVLGASREGLLKNVIHGNLPTQIASQTNTTVFIFRGPVDSPNEEAIVPPLAPDFGLDE | failed |
| MKERKKKYVALWQVMQRECRRLVSRPLYLFCMVIAPLFCYLFFTTLMDSGLPQNLPAGVVDMDDSSTSRNIVRNLDAFSQTGVVAHYSNVTDARIAVQEGKIYGFFYIPKGLSAEAQSQRQPKISFYTNYSYLIAGSLLFRDMKMMGELTAGSAARSVLYAKGATEDQAMGFLQPIVIDTHPLNNPWLNYSVYLCNTLIPGVLMLLIFMVTVYSIGVEIKDRTAREWLRMSNNSIYIALAGKLLPHTVVFFIMGIFYNVYLYGFLHFPCNSGIFPMIFATLCLVLASQCCGIVMIGTLPTLRLGLSFASLWGVISFSISGFSFPVMAMNPVLQALSNLFPLRHYFLIYVDQALNGYSMAYSWSNYMALLIFMMLPFFVVHRLKEALVYYKYIP | failed |
| MPFETPDLLGPSEPVPDRLSANEFLLRPLTPTDAEIDYEAVTESGDRLHGIFGPDDEWPTGLTPEQNRIDVCWHYREHQRRDAFTYGVFDPAETTELGCLYVQPTRIEGYDAAVYYWTAAAAVERGLADEIETACREWVATEWPFGRVAYPGRDVSWQAVPAAGTEGD | failed |
| MAKNTFTPELLEKHFTKNEWKKGARIFQANGVKTCALDGEVIRGVVFSERSRESSYLTRLVFDGKFGDIASYCDCYVGRDCKHGSALAQCYIHEHFDRNSIATSETIIDKWLNRFQAQPTRYQPNTQQKSLLYFLKPNPYNEDDFLTLGIKSARPKNSGGWNSSIGSEYSASSLINSAYANDEDVAVLTELMRTNQYGDTIKYFDLFERIIKTNRSFWHTTYDLSEPVTLSEPLEAEWQWLALGNSLHTLKLVLMQPSESIRIIKAQPLCFYDEEKNCFGKINTNTQCDFEAGLLNSPIFEEDKLPWIMSKLSMSLGDAVKRLPKPKTKYSQELTQPDVYLHFTTPVASNRQTGYVQVNFSYQGNLVNPHDENVTITPSNVTKLSIDSDAQSDADSNIESGAYSNIEDEVERENVSPREIKIYRDLAFEQTVIDKLTTLKFNPQPKPKRYTYTSQDDLNKSKTPEFAMLMQGSVLWQRFLHQELSPLEDLGWHITFADDFYYKALSTDSVFDAEVMETDDHDFFSLGLNLTIDGKKMPAFPILLSAIEQLPRSALLDREKEDLISPDSPIYVDLDNGGFVALRYQSVQPILKQFIELFMPNALSHDGTIELSRFQGHQTLSMLDDQGMIAKGTSKLRALADKLKDFQQVTTIPVPEGLNATLRTYQHQGLNWLQFLREYQLNGILADDMGLGKTIQTLAHLLIEKQQGRLTKPILIVAPTSVIFNWANEIDKFTPQLSYQVLHGNKRHEQFGCLEGVENGENQVDIIITSYALITKDLAHYTDRKFYYLVLDEAHYIKNTKTKLYQAFLTLKAQHKLCLTGTPMENHLGEFWAQFNFLLPGFLGGQRQFTKLFRTPIEKHGELERKQLLNQRIKPFILRRTKDKIATELPPKTEIIQTLRIEGKQAELYESVRLAMDSRLKDIIADKGLKRSQIEVLDALLKLRQVCNHPKLLKLEGAKKVNQSAKLDYLMETLPEQIDEGRKILIFSQFTSMLSLIEDELIDAGIGYVKLTGSTTKRQEVVDKFQRGEVPVFLISLRAGGVGLNLTAADTVIHFDPWWNPAVENQATDRAYRIGQNKPVFVYKLIIENSIEEKIQKIQQNKAELAKALLSEEVSDNKLSLTDDILDSLLTPLS | failed |
| MPLGSSAPPRMGGHTALAAALWPRRTDGFSAWLRMAVLIAFGSVLLALSAKVNLPLPLVPMTLQTLMVVLIGAAYGARLGAATVLAYLAEGAAGLPVFAGPVGGLAPLLGPTAGYLAGFVVAAVLVGWCADRGFDRSVAKLFAAMLAGHLAILTLGFAWLAFGLHLGLAKAWWVGVVPFLAGSLVKSALGAALLPAVRRIVDRQR | failed |
| MIEEAPPHPSAPMAASPSVTTALKHAPLGIAIFDNQMRYLAASRQYLTDQHLPPDLPLIGRLHYDAFPEVPQKWRDLHARVLAEGVELRHEGDPYVDREGRTQWIRWSMAPWRTDGGGIGGLVLYTEVVT | failed |
| SKNEKEQLSKAKASVSSLNKVIQTKLTVGNLGLGLVVIQNGPYLQISHLINKGAAASDGILQPGDVLISVGHANVLGYTLREFLKLLQNITIGTVLQIKAYRGFLEIPQEWQD | not failed |
| MSLDDIINNMIDKLKLLVHFDRISFLLLANETLKLSHVYPKGSHSLDIGSTIPKEQSLYWSALDQRQTIFRSLTDTQDNFYEKQYLAILDLKSILVIPIYSKNKRVGVLSIGRKQQIDWSLDDLAFLEQLTDHLAVSIENVELYGQVLRSKQEWEDTFKAVD | not failed |
| MANITFSSPVMAKDVTVYAVAGDRGTILAVAKSHSIPIPFDCQDGECGSCLVQVEHFNPKAKAAVALTEKEKEVLRQLGKITKEEIVDAEVNDIPPRYRLACQCFVRNEDILVKFEGDKTKPQRLAVTPAAAHYKGGMEINTPQEFFSYAAKVEEDAALHYDSLAKAMADAGNAPVAKLFAQLAEFSRLHLAEVKSRAGSIDLSKSVPPDYAWPDHATPERAAVWASDTTLTRLGALKAALQGERRGYEFYRAVEATTKSSEVAAAAKEFVNEEAEHVRILEAWITQEEWSLKHAAKAAENA | failed |
| MQFSTTPTLEGLTIVEYCGVVTGEAILGANIFRDFFAGIRDIVGGRSGAYEKELRKAREIAFEELGSQARALGADAVVGIDIDYETVGQNGSMLMVSVSGTAVKTRR | not failed |
| INQQEDSSESCWNCGRKASETCSGCNTARYCGSFCQHKDWEKHHHIC | not failed |
| MTHERGYDLASQVLNICNVHHKKLFCHITYRHLLVLSSDDNGCVILKKVITIADDFLKDEFLDLIAQHAHSLSMHDLGISLIQHVLELDFTKKTTQDDKRLHELMAEFDEVLSTSVTADVDKLHKLASKLMLDSDLFFEFVITRRGSLMIQIILGKSEEVDQVILAGVKQRFIDVTTNFYGYRIMIQTIKVFKKRGDLKVYDQILRLIGVHALYLTKDPDMGNKTFQHAINLHHQDCTTFIACGLQSHYIELSFLKHGSKIVEMLIDDRISMVPLVLLMMEIVKCDEDTLVRLATDEYGNNILKKFLALAKEHKEDFFGDLVDKLNPLLDSLRGTLGENIVAIIDSETEMVKDRIVSQGNN | failed |
| MTSFDRPFEAARPDGENPSAHETLAEGGRLRPEATYTIPARQGRAIRMAQGEALMVINRDGSQIGDFWAFVEGDCGEYLSMEHLRPTLRRVSPRPGDVLVSNRRRPILTLLEDSSPGVHDTLVASCDVHRYAQLGHEGYHDNCTDNLRMALGALGLRPTTVPCPLNLWMNTPVVEGGAMEWRPPVSRRGDHVLFRAELDVVVVISCCPMDLLPINGEEAQPRALDVRLRPRPA | not failed |
| MGKKYSMRRRIWQAVIEIIIGTCLLILLLLGLTFFLRQIGQISGSETIRLSLDSDNLTISDIERDMKHYPYDYIIFDNDTSKILGGHYVKSDVPSFVASKQSSHNITEGEITYTYSSNKHFSVVLRQNSMPEFTNHTLRSISYNQFTYLFFFLGEIILIIFSVYHLIREFSKNFQAVQKIALKMGEITTFPEQEESKIIEFDQVLNNLYSKSKELAFLIEAERHEKHDLSFQVAALSHDVKTPLTVLKGNIELLEMTEVNEQQADFIESMKNSLTVFDKYFNTMISYTKLLNDENDYKATISLEDFLIDLSVELEELSTTYQVDYQLVKKTDLTTFYGNTLALSRALINIFVNACQYAKEGEKIVSLSIYDDEKYLYFEIWNNGHPFSEQAKKNAGKLFFTEDTGRSGKHYGIGLSFAQGVALKHQGNLILSNPQKGGAEVILKIKK | failed |
| MKKKYTIFAISMAVALVLGGEVQSINDSVEAQELQHTVKNVKQTEDFNPTKYANEIENFVKQQNPVSIKSLFSTIALKEKADFEKYGEANAAQVKMLWGSYVFFDFGFVKDSKIIEAIKNNPSVYAKFKKTVNINGTGAFLPGTGSPESISIKNNEDGSNIDSYAYYTPHNPDITKNADKTVVMHGGFRGGYEAGNDTPEIRTFYDKGYNILCVDNRATSLSGGDYVTFGQYESDDVQAWINHYLKDKPDQKIVLYGGSMGASTMMSVLAKNYSSNIKGIIENCGFANIRNELGYVYTMAAIGKNELKDLTGTDFAEDFSVTPMNLQKMMETINNYYIKPKANVDIDGNLPAQGITNAIMPKLFIHGESDLVVPFKDNGQYLATLGDTNNNYKFFVPKAGHGEAQTIDGNGYDKAISDYLNLIFK | failed |
| YNPWRNPEGALKRRNTVLNNMLVMGYLSQSQYDEEVARPLGVVSKPTLGPAKFPDFLDIVRRQLRAEYQESDLTNQGL | failed |
| TLQEYQKRMKKLDQQYKERIRNAELFLQLETEQVERNYIKEKKAAVKEFEDKKVELKENLIAELEEKKKMIENEKLTMELTGDSMEVKPIMTRKLRRRPNDPVPIPDKRRKPAPAQLNYLLTDEQIMEDLRTLNKLKSPKRPASPSSPEHLPATPAESPAQRFEARIEDGKLYYDKRWYHKSQAIYLESKDNQKLSCVISSVGANEIWVRKTSDSTKMRIYLGQLQRGLFVIRRRSAA | failed |
